In patent US20050282740:

Biological target: GST-WW-domain of Pin1 (UniProt Q13526)
Sequence (Q13526 1-54): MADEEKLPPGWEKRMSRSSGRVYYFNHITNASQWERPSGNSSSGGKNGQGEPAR

Cdc25C synthesized in vitro and phosphorylated by Xenopus mitotic extracts
dephosphorylation of precipitated Cdc25C by CIP: CIP failed to dephosphorylate Cdc25C
